Source: article PMC12774657, “Multimodal bHLH-PAS DNA binding controls specificity and drives obesity”

Molecular target: SIM1 bHLH-PASA-PASB;ARNT2 bHLH-PASA-PASB (;, UniProt P81133;Q9HBZ2 1-348;1-455, |)
Assay: EMSA; preferred over HIF2a probe; EMSA: 10 nM probe, 20 mM Tris pH 8.0, 250 mM NaCl, 16 ug/ml salmon sperm ssDNA, 30 ug/ml BSA, 1.25 mM MgCl2, 6% glycerol, 10 mM DTT, room temperature 30 min, 5-7% native PAGE
Details: protein: recombinant;recombinant; tags: 6xHis-TEV, tag removed;untagged; copies: 1;1; label: FAM (upper strand); blunt

SIM1 bHLH-PASA-PASB;ARNT2 bHLH-PASA-PASB, sequence (P81133 1-348, chain 1 of 2): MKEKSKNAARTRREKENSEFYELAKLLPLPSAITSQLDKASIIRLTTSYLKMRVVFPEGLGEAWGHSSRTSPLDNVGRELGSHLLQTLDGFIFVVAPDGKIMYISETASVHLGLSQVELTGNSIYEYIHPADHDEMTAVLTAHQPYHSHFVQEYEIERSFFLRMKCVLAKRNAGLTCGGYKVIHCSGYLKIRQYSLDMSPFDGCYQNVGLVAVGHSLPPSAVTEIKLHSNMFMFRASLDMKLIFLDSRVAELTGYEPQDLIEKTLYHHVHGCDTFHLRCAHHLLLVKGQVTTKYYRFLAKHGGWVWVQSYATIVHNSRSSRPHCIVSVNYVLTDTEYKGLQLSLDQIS
SIM1 bHLH-PASA-PASB;ARNT2 bHLH-PASA-PASB, sequence (Q9HBZ2 1-455, chain 2 of 2): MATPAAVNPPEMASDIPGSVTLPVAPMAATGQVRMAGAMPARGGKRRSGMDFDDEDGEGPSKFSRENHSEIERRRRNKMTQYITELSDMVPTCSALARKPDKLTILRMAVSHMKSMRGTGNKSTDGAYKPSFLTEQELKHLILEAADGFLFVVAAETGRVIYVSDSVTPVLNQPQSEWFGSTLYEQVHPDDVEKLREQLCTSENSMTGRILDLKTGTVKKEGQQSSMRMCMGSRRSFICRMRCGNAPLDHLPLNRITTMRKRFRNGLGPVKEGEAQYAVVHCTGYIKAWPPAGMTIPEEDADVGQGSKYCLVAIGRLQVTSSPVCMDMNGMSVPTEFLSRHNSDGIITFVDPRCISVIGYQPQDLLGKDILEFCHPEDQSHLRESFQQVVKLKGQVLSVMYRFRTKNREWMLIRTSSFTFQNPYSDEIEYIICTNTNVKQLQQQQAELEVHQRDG

B1: SRE 22mer (top SIM1/ARNT2 probe) (dsDNA)
DNA 1: AAAAGGTACGTGACCAAAAAGA
DNA 2: TCTTTTTGGTCACGTACCTTTT
B1: binds.
